Experimental data from article PMC9426472, “Blockade of the Adenylate Cyclase Toxin Synergizes with Opsonizing Antibodies to Protect Mice against Bordetella pertussis” (mBio, 2022).

How the values were obtained:
[1] = molecular target: integrin αMβ2 (Homo sapiens) (UniProt P11215); experiment: SPR; conditions: cited from earlier work
[2] = molecular target: T1, soluble, purified mouse αMβ2 integrin (ectodomain heterodimer) (mouse, UniProt P05555 17-1105; P11835 24-701); experiment: SPR; Biacore X100; M1F5 Fab amine-coupled to both flow cells of a CM5 chip (~2,500 RU); ~10 RU RTX (10 nM) captured on flow cell 2 in each cycle; mouse αMβ2 at 6.13 to 200 nM flowed for 180 s, dissociation 600 s; 10 mM HEPES pH 7.4, 150 mM NaCl, 1 mM CaCl2, 1 mM MgCl2, 0.05% Tween 20; global 1:1 binding model; conditions: both partners purified
T1 construct: also called CR3; MAC-1
T1 sequence (P05555 other isoform, or with tags, fused parts or gaps, chain 1 of 2): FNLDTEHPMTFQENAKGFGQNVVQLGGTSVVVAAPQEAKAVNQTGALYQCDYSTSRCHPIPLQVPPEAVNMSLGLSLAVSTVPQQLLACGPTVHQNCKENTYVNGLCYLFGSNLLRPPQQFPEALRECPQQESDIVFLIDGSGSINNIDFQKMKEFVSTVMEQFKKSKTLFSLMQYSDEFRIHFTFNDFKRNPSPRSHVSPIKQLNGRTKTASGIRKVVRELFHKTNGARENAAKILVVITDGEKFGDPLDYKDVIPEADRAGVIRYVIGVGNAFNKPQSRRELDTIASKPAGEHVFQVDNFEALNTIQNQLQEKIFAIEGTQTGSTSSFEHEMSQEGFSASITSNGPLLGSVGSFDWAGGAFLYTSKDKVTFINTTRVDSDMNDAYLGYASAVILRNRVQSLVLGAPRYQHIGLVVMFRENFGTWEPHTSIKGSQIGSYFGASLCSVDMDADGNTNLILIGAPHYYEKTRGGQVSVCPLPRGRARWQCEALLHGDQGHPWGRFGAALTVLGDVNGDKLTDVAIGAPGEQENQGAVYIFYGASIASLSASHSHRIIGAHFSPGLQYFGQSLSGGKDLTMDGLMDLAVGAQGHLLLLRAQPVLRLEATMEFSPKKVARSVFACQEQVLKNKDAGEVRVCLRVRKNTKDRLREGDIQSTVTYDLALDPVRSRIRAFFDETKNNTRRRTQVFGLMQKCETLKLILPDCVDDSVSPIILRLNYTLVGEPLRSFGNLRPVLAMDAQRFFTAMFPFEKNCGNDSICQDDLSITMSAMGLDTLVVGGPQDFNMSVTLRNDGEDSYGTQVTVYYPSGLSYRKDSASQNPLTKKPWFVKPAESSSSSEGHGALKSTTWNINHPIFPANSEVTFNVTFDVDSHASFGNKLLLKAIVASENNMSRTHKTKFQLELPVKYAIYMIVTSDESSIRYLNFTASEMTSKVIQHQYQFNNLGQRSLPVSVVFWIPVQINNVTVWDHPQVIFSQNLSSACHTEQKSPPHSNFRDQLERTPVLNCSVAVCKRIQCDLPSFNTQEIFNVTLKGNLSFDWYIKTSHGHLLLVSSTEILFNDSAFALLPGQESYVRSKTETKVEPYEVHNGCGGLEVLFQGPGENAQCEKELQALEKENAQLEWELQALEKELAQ
T1 sequence (P11835 other isoform, or with tags, fused parts or gaps, chain 2 of 2): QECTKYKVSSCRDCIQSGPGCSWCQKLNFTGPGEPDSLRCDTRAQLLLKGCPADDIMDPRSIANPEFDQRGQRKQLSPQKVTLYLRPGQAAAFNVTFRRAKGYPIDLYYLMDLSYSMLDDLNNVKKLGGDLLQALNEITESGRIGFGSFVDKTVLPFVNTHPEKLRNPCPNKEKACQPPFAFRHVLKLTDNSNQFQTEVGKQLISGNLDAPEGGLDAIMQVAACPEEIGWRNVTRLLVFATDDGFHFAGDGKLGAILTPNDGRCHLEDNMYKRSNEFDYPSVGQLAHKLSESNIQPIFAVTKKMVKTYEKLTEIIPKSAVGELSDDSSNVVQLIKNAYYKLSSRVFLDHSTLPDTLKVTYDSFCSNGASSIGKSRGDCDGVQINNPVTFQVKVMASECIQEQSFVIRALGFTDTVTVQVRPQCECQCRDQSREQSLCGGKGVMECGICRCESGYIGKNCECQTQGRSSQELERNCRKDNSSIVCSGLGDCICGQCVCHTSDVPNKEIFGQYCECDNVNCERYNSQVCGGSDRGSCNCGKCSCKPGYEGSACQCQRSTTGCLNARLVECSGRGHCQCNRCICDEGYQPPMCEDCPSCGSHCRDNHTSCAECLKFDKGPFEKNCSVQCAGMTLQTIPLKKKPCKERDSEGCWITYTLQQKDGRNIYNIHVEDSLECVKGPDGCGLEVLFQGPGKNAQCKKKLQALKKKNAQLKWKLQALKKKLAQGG

Molecule | Kd [1] [nM] | Kd [2] [nM] | koff [2] [s⁻¹] | kon [2] [M⁻¹ s⁻¹]
adenylate cyclase toxin RTX751 (from UniProt P0DKX7) | 57 |  |  | 
RTX751 (RTX domain of the Bordetella pertussis adenylate cyclase toxin, residues 751 to 1706) (domain or fragment, Cloned into the NheI and BamHI sites of pET28a+; The vector may add N-terminal residues (His tag, thrombin site) before the Strep tag; also called recombinant RTX751) ANSDGLRKMLADLQAGWNASSVIGVQTTEISKSALELAAITGNADNLKSVDVFVDRFVQGERVAGQPVVLDVAAGGIDIASRKGERPALTFITPLAAPGEEQRRRTKTGKSEFTTFVEIVGKQDRWRIRDGAADTTIDLAKVVSQLVDANGVLKHSIKLDVIGGDGDDVVLANASRIHYDGGAGTNTVSYAALGRQDSITVSADGERFNVRKQLNNANVYREGVATQTTAYGKRTENVQYRHVELARVGQLVEVDTLEHVQHIIGGAGNDSITGNAHDNFLAGGSGDDRLDGGAGNDTLVGGEGQNTVIGGAGDDVFLQDLGVWSNQLDGGAGVDTVKYNVHQPSEERLERMGDTGIHADLQKGTVEKWPALNLFSVDHVKNIENLHGSRLNDRIAGDDQDNELWGHDGNDTIRGRGGDDILRGGLGLDTLYGEDGNDIFLQDDETVSDDIDGGAGLDTVDYSAMIHPGRIVAPHEYGFGIEADLSREWVRKASALGVDYYDNVRNVENVIGTSMKDVLIGDAQANTLMGQGGDDTVRGGDGDDLLFGGDGNDMLYGDAGNDTLYGGLGDDTLEGGAGNDWFGQTQAREHDVLRGGDGVDTVDYSQTGAHAGIAAGRIGLGILADLGAGRVDKLGEAGSSAYDTVSGIENVVGTELADRITGDAQANVLRGAGGADVLAGGEGDDVLLGGDGDDQLSGDAGRDRLYGEAGDDWFFQDAANAGNLLDGGDGRDTVDFSGPGRGLDAGAKGVFLSLGKGFASLMDEPETSNVLRNIENAVGSARDDVLIGDAGANVLNGLAGNDVLSGGAGDDVLLGDEGSDLLSGDAGNDDLFGGQGDDTYLFGVGYGHDTIYESGGGHDTIRINAGADQLWFARQGNDLEIRILGTDDALTVHDWYRDADHRVEIIHAANQAVDQAGIEKLVEAMAQYPDPGAAAAAPPAARVPDTLMQSLAVNWR |  | 52 | 0.0028 | 55000
